Results published in patent US12161669.

How the values were obtained:
[1] = molecular target: RhoB GTPase, recombinant (full length RhoB with the C-terminal CKVL motif deleted, six-HIS tag, expressed in E. coli) (UniProt P62745); test: BLI (BLItz), RhoB immobilised on Ni-NTA biosensor, BFI in solution with the phosphoantigen cHDMAPP at 1:1; kd(1/Ms) [sic]
[2] = molecular target: RhoB GTPase, recombinant (full length RhoB with the C-terminal CKVL motif deleted, six-HIS tag, expressed in E. coli) (UniProt P62745); test: BLI (BLItz), RhoB immobilised on Ni-NTA biosensor, BFI in solution, 1:1 fit, no pAg
[3] = molecular target: RhoB GTPase, recombinant (full length RhoB with the C-terminal CKVL motif deleted, six-HIS tag, expressed in E. coli) (UniProt P62745); test: BLI (BLItz), RhoB immobilised on Ni-NTA biosensor, BFI in solution with the phosphoantigen cHDMAPP at 1:1
[4] = molecular target: RhoB GTPase, recombinant (full length RhoB with the C-terminal CKVL motif deleted, six-HIS tag, expressed in E. coli) (UniProt P62745); test: BLI (BLItz), RhoB immobilised on Ni-NTA biosensor, BFI in solution, 1:1 fit, no pAg; kd(1/Ms) [sic]
[5] = molecular target: RhoB GTPase, recombinant (full length RhoB with the C-terminal CKVL motif deleted, six-HIS tag, expressed in E. coli) (UniProt P62745); test: BLI (BLItz), RhoB immobilised on Ni-NTA biosensor, B30.2 domain in solution, 1:1 fit, no pAg
[6] = molecular target: RhoB GTPase, recombinant (full length RhoB with the C-terminal CKVL motif deleted, six-HIS tag, expressed in E. coli) (UniProt P62745); test: BLI (BLItz), RhoB immobilised on Ni-NTA biosensor, B30.2 domain in solution, 1:1 fit, no pAg; kd(1/Ms) [sic]

BTN3A1 (CD277) full-length intracellular domain, recombinant (from UniProt O00481 272-513) (receptor)
kon [1]: 172 M⁻¹ s⁻¹ | Kd [2]: 19.7 µM | koff [2]: 0.0435 s⁻¹ | Kd [3]: 666 µM | koff [3]: 0.115 s⁻¹ | kon [4]: 2200 M⁻¹ s⁻¹

BTN3A1 (CD277) B30.2 domain, recombinant (from UniProt O00481 328-513) (receptor)
Kd [5]: 102 µM | koff [5]: 0.206 s⁻¹ | kon [6]: 2020 M⁻¹ s⁻¹
